The assay deals with three HER2 antigens (HER2 fragment proteins used for panning). Briefly: monoclonal phage ELISA on immobilised HER2 antigens. For orientation: An ELISA detects its analyte on a solid surface through an enzyme-linked reagent.

B1: H44 clone (VHH displayed on monoclonal M13 phage) (VHH)
VHH: QVQLVESGGTLVQAGGSLRLSCAASGRTFSSYAMGWFRQAPGKEREFVAAIRLKTDYSDSVKGRFTISRDNAKNTVYLQMNSLKPEDTAVYYCAAWLRRGYGASWYLTGADPRYWGRGTRVTVSS
For the molecule B1, the abs. at 450 nm was > 1.5.

For the origin of these results see patent WO2019198731A1.
